Reference: paper PMC3979375 (2014)

Experiments:
[1] = molecular target: T1, GST-GUK, fusion protein of GST and the GUK domain of SAP102 (Rattus norvegicus (Rat), UniProt Q62936); test: GST pulldown
T1 chain: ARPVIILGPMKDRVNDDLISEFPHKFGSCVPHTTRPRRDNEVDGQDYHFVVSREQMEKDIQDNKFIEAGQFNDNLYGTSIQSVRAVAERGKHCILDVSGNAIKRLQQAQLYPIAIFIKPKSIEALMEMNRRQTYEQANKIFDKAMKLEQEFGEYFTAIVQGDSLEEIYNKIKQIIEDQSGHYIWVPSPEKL

[2] = molecular target: T2, GST-SH3, fusion protein of GST and the SH3 domain of SAP102 (Rattus norvegicus (Rat), UniProt Q62936); test: GST pulldown / amylose pulldown
T2 chain: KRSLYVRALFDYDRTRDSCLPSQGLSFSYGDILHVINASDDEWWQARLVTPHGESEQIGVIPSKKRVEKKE

[3] = molecular target: T3, GST-SH3-GUK, fusion protein of GST and the combined SH3-GUK domain of SAP102 (Rattus norvegicus (Rat), UniProt Q62936); test: GST pulldown / amylose pulldown
T3 chain: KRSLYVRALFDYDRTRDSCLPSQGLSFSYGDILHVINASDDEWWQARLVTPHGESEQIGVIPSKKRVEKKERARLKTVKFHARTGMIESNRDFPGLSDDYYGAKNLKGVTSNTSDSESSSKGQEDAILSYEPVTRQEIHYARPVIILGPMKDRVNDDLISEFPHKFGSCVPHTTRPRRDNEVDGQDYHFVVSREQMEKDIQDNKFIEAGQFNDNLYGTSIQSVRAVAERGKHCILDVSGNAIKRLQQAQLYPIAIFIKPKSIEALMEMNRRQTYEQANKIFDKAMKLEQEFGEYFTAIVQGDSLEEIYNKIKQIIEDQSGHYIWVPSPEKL

- binding result [1]: binds
- binding result [2]: binds
- binding result [3]: binds
B1: MBP-A2A-CT, fusion protein comprising maltose-binding protein and the carboxyl terminus of the A2A receptor (protein)
chain: RIREFRQTFRKIIRSHVLRQQEPFKAAGTSARVLAAHGSDGEQVSLRLNGHPPGVWANGSAPHPERRPNGYALGLVSGGSAQESQGNTGLPDVELLSHELKGVCPEPPGLDDPLAQDGAGVS
